In patent US20240158497A1 (published 2024):

T1: Macaca Fascicularis GP130 extracellular domain expressed with a C-terminal myc-myc-hexahistidine tag (Macaca fascicularis, UniProt P40189 23-619 (human entry))
T1 construct: also called mfGP130-MMH; mfGP130-mmH
T1 chain: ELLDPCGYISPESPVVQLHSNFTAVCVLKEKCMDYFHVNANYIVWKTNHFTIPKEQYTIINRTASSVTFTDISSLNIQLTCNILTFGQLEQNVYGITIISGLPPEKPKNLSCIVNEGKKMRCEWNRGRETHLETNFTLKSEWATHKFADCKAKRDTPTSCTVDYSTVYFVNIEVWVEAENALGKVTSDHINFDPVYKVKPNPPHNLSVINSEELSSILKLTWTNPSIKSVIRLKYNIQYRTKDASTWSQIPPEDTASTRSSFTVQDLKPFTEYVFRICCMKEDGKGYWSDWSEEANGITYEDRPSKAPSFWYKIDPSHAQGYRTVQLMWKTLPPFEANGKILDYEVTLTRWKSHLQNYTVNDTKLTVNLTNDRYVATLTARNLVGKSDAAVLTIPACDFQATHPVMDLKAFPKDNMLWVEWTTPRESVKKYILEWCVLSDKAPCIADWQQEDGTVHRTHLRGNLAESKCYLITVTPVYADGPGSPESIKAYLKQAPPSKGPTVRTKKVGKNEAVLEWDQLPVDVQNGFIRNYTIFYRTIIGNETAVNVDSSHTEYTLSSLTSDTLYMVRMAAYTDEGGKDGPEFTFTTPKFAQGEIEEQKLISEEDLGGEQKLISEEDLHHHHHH

T2: human gp130 extracellular domain (E23-E619) with C-terminal mouse IgG2a Fc (human)
T2 construct: dimeric; also called hGP130-mFc; human GP130-mFc
T2 chain: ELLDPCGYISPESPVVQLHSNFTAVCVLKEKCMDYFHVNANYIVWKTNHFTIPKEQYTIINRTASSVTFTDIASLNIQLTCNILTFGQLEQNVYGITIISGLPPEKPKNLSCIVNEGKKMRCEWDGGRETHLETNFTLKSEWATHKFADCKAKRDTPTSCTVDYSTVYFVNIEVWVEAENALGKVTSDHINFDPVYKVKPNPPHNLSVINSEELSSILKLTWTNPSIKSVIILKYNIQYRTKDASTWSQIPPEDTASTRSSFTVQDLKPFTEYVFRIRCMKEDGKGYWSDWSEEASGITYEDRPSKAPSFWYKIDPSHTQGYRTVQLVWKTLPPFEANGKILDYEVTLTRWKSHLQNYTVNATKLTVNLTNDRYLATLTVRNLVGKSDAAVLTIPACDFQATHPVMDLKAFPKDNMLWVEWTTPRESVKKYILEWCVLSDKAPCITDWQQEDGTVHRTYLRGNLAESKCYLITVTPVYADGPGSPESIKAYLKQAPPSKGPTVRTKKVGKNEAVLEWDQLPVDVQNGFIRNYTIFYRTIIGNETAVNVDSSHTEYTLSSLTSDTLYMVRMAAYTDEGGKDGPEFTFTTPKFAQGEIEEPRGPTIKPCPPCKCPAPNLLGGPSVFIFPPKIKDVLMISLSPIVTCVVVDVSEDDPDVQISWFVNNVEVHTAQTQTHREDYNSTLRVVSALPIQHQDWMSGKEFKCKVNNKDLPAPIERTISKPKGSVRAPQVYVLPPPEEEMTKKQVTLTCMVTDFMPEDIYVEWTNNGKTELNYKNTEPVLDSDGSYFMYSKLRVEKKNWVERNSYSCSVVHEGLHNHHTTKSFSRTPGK

B1: bsAb21236D (bispecific antibody, V domains shown)
VH 1: QVQLQESGPGLVKPSQTLSLTCTVSGGSISSGGDYWSWIRQLPGKGLEWIGYIYYSGSAYYNPSLKSRGTISIDTSKNQFSLKLTSVTAADTAVYFCVKLRFLEWFLGGWFGPWGQGTLVTVSS
VH 2: QVQLVESGGGLVKPGGSLRLSCAASGFTFSDYYMTWIRQTPGKGLDWVSYISSSGTNKYNADSVKGRFTISRDNAKNSLYLQMNSLRAEDTAVYYCVRDPPWGMDVWGQGTTVTVSS
VL: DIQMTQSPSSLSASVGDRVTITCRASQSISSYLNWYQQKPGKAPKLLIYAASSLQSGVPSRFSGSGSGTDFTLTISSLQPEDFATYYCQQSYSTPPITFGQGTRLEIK
notes: LEPR x GP130 bispecific with common light chain; also called H4H21236D; bsAb21236 (LEPR × GP130)
B2: bsAb21237D (bispecific antibody, V domains shown)
VH 1: EVQLVESGGGLVQPGGSLRLSCAASGFTFSNYGMTWVRQAPGKGLEWVSAITGGGGSTYYSNSVKGRFTISRDNSKNTVYLRMNSVRAEDTAVYYCAKYKWNFVDDWGQGTTVTVSS
VH 2: B1 VH 2
VL: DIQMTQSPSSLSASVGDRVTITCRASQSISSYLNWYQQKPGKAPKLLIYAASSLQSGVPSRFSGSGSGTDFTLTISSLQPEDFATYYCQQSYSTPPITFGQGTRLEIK
notes: LEPR x GP130 bispecific with common light chain; also called H4H21237D; bsAb21237 (LEPR × GP130)
B3: MAb16666 (antibody, V domains shown)
VH: EVQLVESGGGLVQSGGSLRLSCAASGFTFSRYEMNWVRQAPGKGLEWVAYISNTGTTRDYSDSVKGRFTISRDNAKNSLYLQMSSLRVEDTAVYYCVREKFSGTSDWFDPWGQGTLVTVSS
VL: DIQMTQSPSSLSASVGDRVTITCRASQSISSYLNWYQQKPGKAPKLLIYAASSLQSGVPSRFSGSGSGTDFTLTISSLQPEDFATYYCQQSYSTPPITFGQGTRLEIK
notes: hIgG4 isotype control used

Tests used:
[1] = molecular target: T1, Macaca Fascicularis GP130 extracellular …; assay: SPR, bsAb captured by anti-hFc, 37C
Method in brief: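 Anti-hFc-captured bispecific antibodies received 3-fold serial dilutions of LEPR or GP130 (100 nM–3.7 nM) in HBS-ET, pH 7.4, injected for 4 min with 10 min dissociation at 25 °C or 37 °C. ka and kd came from a 1:1 binding model with mass transport limitation, and KD and t½ were calculated from these rate constants.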

[2] = molecular target: T2, human gp130 extracellular domain …; assay: blocking ELISA, 2.5 nM hGP130-mFc on plate-bound CNTFR/CNTF complex; * below lower limit of quantitation 1.25E-09M
Method: The experiment was carried out using the following procedure. Human CNTFRα was coated at a concentration of […] in HBSS on a 96-well microtiter plate overnight at 4° C. […] Human CNTF at a concentration of 1 μg/ml in HBSS was added to the plate bound CNTFRα for 1 hour at room temperature. In separate dilution plates, a constant amount of 2.5 nM of human GP130-mFc protein was titrated with antibodies ranging from 3.4 pM to 200 nM in serial dilution and with no antibody present. These solutions were incubated for 1 hour at room temperature (RT) and subsequently transferred to the microtiter plates with CNTFRα/CNTF complex without washing. The plates were incubated for 2 hours at RT, washed with PBST buffer, and plate-bound hGP130-mFc was detected with an anti-mFc polyclonal antibody conjugated with horseradish peroxidase (HRP) (Jackson ImmunoResearch Inc). Samples were developed with a TMB solution (BD Biosciences, substrate A and B mixed at 1:1 ratio as per manufacturer's instructions) to produce a colorimetric reaction and then neutralized with 1M sulfuric acid before measuring absorbance at 450 nm on a Victor X5 plate reader.
Data analysis was performed using a sigmoidal dose-response model within Prism™ software (GraphPad). […]

| Binder | 100 nM mfGP130-MMH Bound (RU) [1] [RU] | Kd [1] [nM] | koff [1] [s⁻¹] | kon [1] [M⁻¹ s⁻¹] | t½ [1] [min] | IC50 [2] [nM] |
| --- | --- | --- | --- | --- | --- | --- |
| B1 | 18 | 179 | 0.0125 | 69800 | 0.9 | – |
| B2 | 21 | 215 | 0.00792 | 36900 | 1.5 | – |
| B3 | – | – | – | – | – | 0.644 |
